The values that follow are results of earlier work, collected in PMC1298930.

For this data set, the target named is PCNA2 (Sulfolobus solfataricus) (UniProt Q97Z84).
Chain of UniProt Q97Z84 (Q97Z84 whole entry): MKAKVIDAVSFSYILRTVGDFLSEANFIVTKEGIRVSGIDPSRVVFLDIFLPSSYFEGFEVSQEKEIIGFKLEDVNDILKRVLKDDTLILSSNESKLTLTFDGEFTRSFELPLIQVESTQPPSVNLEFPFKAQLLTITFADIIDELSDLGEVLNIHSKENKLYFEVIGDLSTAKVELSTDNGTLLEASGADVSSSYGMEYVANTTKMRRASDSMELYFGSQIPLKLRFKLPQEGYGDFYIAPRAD

As for PCNA1 (from UniProt P57766), the Kd is 0.012 nM.

For orientation: Kd means the concentration at which binding is half-saturated.
